From patent US20230212587A1, “Mutant Hydroxyphenylpyruvate Dioxygenase Polypeptide, Encoding Gene Thereof and Use Therefor” (Beijing Dabeinong Biotechnology Co., Ltd., priority 2019, published 2023)

B1: AtHPPDm-F372V: Arabidopsis thaliana HPPD mutant F372V, SEQ ID NO: 349 (protein)
chain: MGHQNAAVSENQNHDDGAASSPGFKLVGFSKFVRKNPKSDKFKVKRFHHIEFWCGDATNVARRFSWGLGMRFSAKSDLSTGNMVHASYLLTSGDLRFLFTAPYSPSLSAGEIKPTTTASIPSFDHGSCRSFFSSHGLGVRAVAIEVEDAESAFSISVANGAIPSSPPIVLNEAVTIAEVKLYGDVVLRYVSYKAEDTEKSEFLPGFERVEDASSFPLDYGIRRLDHAVGNVPELGPALTYVAGFTGFHQFAEFTADDVGTAESGLNSAVLASNDEMVLLPINEPVHGTKRKSQIQTYLEHNEGAGLQHLALMSEDIFRTLREMRKRSSIGGFDFMPSPPPTYYQNLKKRVGDVLSDDQIKECEELGILVDRDDQGTLLQIVTKPLGDRPTIFIEIIQRVGCMMKDEEGKAYQSGGCGGFGKGNFSELFKSIEEYEKTLEAKQLVG
modifications: AtHPPDm-F372V Amino Acid Sequence
B2: CsHPPDm-F372V: Cucumis sativus HPPD mutant F372V, SEQ ID NO: 379 (protein)
chain: MGKEADFPRAPSEATDGGATASQSEFELQGFDNFIRTNPKSDRFKVKRFHHIEFWCTDATNVARRFSWGLGMQIVAKSDLSTGNMTHASYLLRSGHLCFLFTAPYSPSIAAAQNLTPASTASIPSFDHSVCRSFSGTHGFGARAIALEVEDAEIAFRTSVAHGAKPSCPPIVLENRAVLSEVHLYGDVVLRYISYKNPVSGDNGENKPDEWFLPKFEAMEETASFPLDFGIRRLDHAVGNVPELGPAVSYLKGFTGFHEFAEFTAEDVGTSESGLNSMVLANNEEMVLLPINEPVFGTKRKSQIQTYLEHNEGAGVQHLALMSEDIFRTLREMRKRSSVGGFEFMPSPPPTYYKNLKSRAGDVLTDEQIKECEELGILVDKDDQGTLLQIVTKPVGDRPTIFIEIIQRLGCMMKDEEGKAFQKGGCGGFGKGNFSELFKSIEEYEKTLEAKRVSE
modifications: CsHPPDm-F372V Amino Acid Sequence
B3: NtHPPDm-F372V: Nicotiana tabacum HPPD mutant F372V, SEQ ID NO: 377 (protein)
chain: MGKLETVTTTSAAAADDSSELTTNFKLVGFKNFIRTNPRSDFFSVKSFHHIEFWCGDATNTARRFSWSLGMPIAAKSDLSTGNSVHASYLLRPVSGSLQFLFTAPYSPSISTPSSAAIPSFSTSTHRSFTTTHGLGVRAVALEVENAYTAFSASVSRGAKPMFEPVTIDEQVAMAEVHLYGDVVLRFVSYLKDADNLVFLPGFEAMDETASYKELDYGIRRLDHAVGNVPELGPVVDYIKRFTGFHEFAEFTAEDVGTAESGLNSMVLANNDETVLLPLNEPVYGTKRKSQIQTYLEHNEGAGVQHLALVTEDIFKTLTEMRKRSGVGGFEFMPSPPPTYYKNLKNRAGDVLSDEQILACEELGILVDRDDQGTLLQIVTKPVGDRPTIFIEIIQRIGCMLKDGKGQVYQKGGCGGFGKGNFSELFRSIEEYEKTLEAKQANQVAAA
modifications: NtHPPDm-F372V Amino Acid Sequence
B4: MsHPPDm-F372V: Medicago sativa HPPD mutant F372V, SEQ ID NO: 373 (protein)
chain: MAIETETQTQTGFKLVGFKNFVRANPKSDRFKVKRFHHVEFWCTDATNTARRFSHGLGMPIVAKSDLSTGNQTHASYLLRSGDLNFLFSAAYSPSISLSSPSSTAAIPTFSASNCFSFSASHGLAVRAVAVEVEDAELAFTTSVNNGAIPSSPPVILENHVKLAEVRLYGDVVLRYVSYNDPNPNQNPNLLFLPGFERVSDESSNSSLDFGIRRLDHAVGNVPELSSAVKYVKDFTGFHEFAEFTAEDVGTSESGLNSVVLANNEETVLLPMNEPVYGTKRKSQIETYLEHNEGAGLQHLALKSEDIFRTLREMRKRSGVGGFEFMPSPPVTYYRNLKNRVGDVLSDEQIKECEELGILVDRDDQGTLLQIVTKPIGDRPTIFIEIIQRVGCMLKDEEGKEYQKGGCGGFGKGNFSELFKSIEEYEKTLETRRTA
modifications: MsHPPDm-F372V Amino Acid Sequence
B5: OsHPPDm-F372V: Oryza sativa HPPD mutant F372V, SEQ ID NO: 363 (protein)
chain: MPPTPTPTATTGAVSAAAAAGENAGFRLVGHRRFVRANPRSDRFQALAFHHVELWCADAASAAGRFAFALGAPLAARSDLSTGNSAHASLLLRSASVAFLFTAPYGGDHGVGADAATTASIPSFSPGAARRFAADHGLAVHAVALRVADAADAFRASVAAGARPAFQPADLGGGFGLAEVELYGDVVLRFVSHPDGADAPFLPGFEGVSNPGAVDYGLRRFDHVVGNVPELAPVAAYISGFTGFHEFAEFTAEDVGTAESGLNSVVLANNAETVLLPLNEPVHGTKRRSQIQTYLDHHGGPGVQHIALASDDVLGTLREMRARSAMGGFEFLAPPPPNYYDGVRRRAGDVLSEEQINECQELGVLVDRDDQGVLLQIVTKPVGDRPTFFLEMIQRIGCMEKDESGQEYQKGGCGGFGKGNFSELFKSIEEYEKSLEAKQAPTVQGS
modifications: OsHPPDm-F372V Amino Acid Sequence
B6: HaHPPDm-F372V: Helianthus annuus HPPD mutant F372V, SEQ ID NO: 371 (protein)
chain: MGTEATVAAVVAGDESDHPTSAFKLVGFKNFIRTNPMSDKFTVKNFHHIEFWCSDATNTARRFSWGLGMPIIFKSDLSTGNSTHASYLLRSGHLNFLFTAPYSPSISPTTTTASIPTFSHSASRHFTATHGLAVRAIAVEVEDAETAFAVSVANGAKPSSPPVTLGHNDVVLSEVKLYGDVVLRYVSYKNNTNNNNNNDNDNYIFLPGFEAMDKTSSFQELDYGIRRLDHAVGNVPELAPAVDYVKSFTGFHEFAEFTAEDVGTSESGLNSVVLACNSEMVLIPMNEPVYGTKRKSQIQTYLEHNEGAGVQHLALASEDIFRTLREMRKRSGVGGFEFMPSPPPTYYRNLKSRAGDVLSDEQIKECEELGILVDRDDQGTLLQIVTKPVGDRPTIFIEIIQRVGCMVKDDEGKVQQKAGCGGFGKGNFSELFKSIEEYEKTLEARSTTAA
modifications: HaHPPDm-F372V Amino Acid Sequence
B7: GmHPPDm-F372V: Glycine max HPPD mutant F372V, SEQ ID NO: 365 (protein)
chain: MPMYTPSLSAPSSNHIQPSVTLPLYITTTKLNLKQQHHTTPMPIPMCNEIQAQAQAQAQPGFKLVGFKNFVRTNPKSDRFQVNRFHHIEFWCTDATNASRRFSWGLGMPIVAKSDLSTGNQIHASYLLRSGDLSFLFSAPYSPSLSAGSSAASSASIPSFDAATCLAFAAKHGFGVRAIALEVADAEAAFSASVAKGAEPASPPVLVDDRTGFAEVRLYGDVVLRYVSYKDAAPQAPHADPSRWFLPGFEAAASSSSFPELDYGIRRLDHAVGNVPELAPAVRYLKGFSGFHEFAEFTAEDVGTSESGLNSVVLANNSETVLLPLNEPVYGTKRKSQIETYLEHNEGAGVQHLALVTHDIFTTLREMRKRSFLGGFEFMPSPPPTYYANLHNRAADVLTVDQIKQCEELGILVDRDDQGTLLQIVTKPVGDRPTIFIEIIQRIGCMVEDEEGKVYQKGACGGFGKGNFSELFKSIEEYEKTLEAKRTA
modifications: GmHPPDm-F372V Amino Acid Sequence
B8: BvHPPDm-F372V: Beta vulgaris HPPD mutant F372V, SEQ ID NO: 375 (protein)
chain: MGTLSPQPQTSPSQFKLVGYSNFIRVNPLSDLFPVKRFHHVEFWCGDATNVSRRFSWGLGMPIVAKSDLSTGNSVHASYLLRSGELHFLFTSPYSPSLSSPSSATIPTFSFSLFTSFLTSHGLAVRAVAVEVQDAEAAFHISVSNGASPVSPPIRLHDGVVLSEVHLYGDVVLRYVSTSSVVDGIFLPGFEEMLGESSFQELDFGLRRLDHAVGNVPELAPAIEYVKKFTGFHEFAEFTTEDVGTSESGLNSAVVANNDETVLFPMNEPVYGTKRKSQIQTYLEHNEGAGVQHLALMSEDIFWTLREMRKRSGLGGFEFMPSPPPTYYRNLRNRAADVLSEEQMKECEELGILVDKDDQGTLLQIVTKPIGDRPTMFIEIIQRIGCMMKDEEGKVYQKGGCGGFGKGNFSELFKSIEEYEKTLERKPIADTNAT
modifications: BvHPPDm-F372V Amino Acid Sequence
B9: BnHPPDm-F372V: Brassica napus HPPD mutant F372V, SEQ ID NO: 369 (protein)
chain: MGHENAAVCETQQHDDAASPGFKLVGFSKFVRKNPKSDKFKVKRFHHIEFWCGDATNVSRRFSWGLGMRFSAKSDLSTGNMVHASYLLTSGDLRFLFTAPYSPSLSAGEAQPSATASIPSFDHASCRSFFSSHGLGVRAVAIEVEDAESAFSISVANGAVPSSPPNVLNGAVTIAEVKLYGDVVLRYVSYYNGTVSFLPGFESVDDTSSFPLDYGIRRLDHAVGNVPELGPALTYLAGFTGFHQFAEFTADDVGTAESGLNSAVLANNDEMVLLPINEPVHGTKRKSQIQTFLEHNEGAGLQHLALMSEDIFRTLREMRKRSGVGGFDFMPSPPPTYYKNLKKRVGDVLSEEQIEECEELGILVDRDDQGTLLQIVTKPLGDRPTIFIEIIQRVGCMKRDEEGKVYQSGGCGGFGKGNFSELFKSIEEYEKTLEAKQLVG
modifications: BnHPPDm-F372V Amino Acid Sequence
B10: CaHPPDm-F372V: Cicer arietinum HPPD mutant F372V, SEQ ID NO: 367 (protein)
chain: MGTIETQTGFKLVGFNNFVRTNPKSDRFKVKRFHHVEFWCPDATNTARRFSWGLGMPIVAKSDLSTGNQTHASYLLRSGDLNFLFTAAYSPSISLSAPHPTASIPSFSAPTSFAFSASHGLGVRAVAIEVDDAEFAYTTSVNHGAIPSSPPVVLDNRVKLAEVQLYGDVVLRYVSYNDPIETSNPNPNHWFLPGFEPVEETSSNQSIDFGIQRLDHAVGNVPELSSALNYVKQFTGFHEFAEFTAEDVGTSESGLNSTVLANNEETVLLPMNEPVYGTKRKSQIQTYLEHNEGAGLQHLALMSNDIFKTLREMRKRSGIGGFEFMPSPPPTYYSNLKKRVGDVLNDEQIKECEELGILVDKDDQGTLLQIVTKPVGDRPTIFIEIIQRVGCMLKDDEGKEYQKGGCGGFGKGNFSELFKSIEEYEKTLEIKRTA
modifications: CaHPPDm-F372V Amino Acid Sequence

Tested on: Arabidopsis thaliana T1 plants
Experiment: Topramezone tolerance of transgenic Arabidopsis thaliana T1 plants (pesticide damage grade by bleached leaf area, score, resistance evaluation)
Format: in vivo
Settings: HPPD F372V mutants, Table 7
Procedure, shortened: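 Eighteen days after sowing, wild-type and HPPD-transgenic T1 Arabidopsis receive a topramezone spray at 1×, 2× or 4× field rate (25–100 g ai/ha) or water. Seven days later each plant is graded by its proportion of bleached leaf area.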

| Molecule | Resistance evaluation (topramezone 25 g ai/ha (1x)) | Resistance evaluation (topramezone 100 g ai/ha (4x)) |
| --- | --- | --- |
| B1 | Poorly resistant | Non-resistant |
| B2 | Poorly resistant | Non-resistant |
| B3 | Poorly resistant | Non-resistant |
| B4 | Poorly resistant | Non-resistant |
| B5 | Moderately resistant | Non-resistant |
| B6 | Poorly resistant | Non-resistant |
| B7 | Poorly resistant | Non-resistant |
| B8 | Poorly resistant | Non-resistant |
| B9 | Poorly resistant | Non-resistant |
| B10 | Poorly resistant | Non-resistant |
